The source of these data is patent US8173397B2, “Folded recombinant catalytic fragments of multidomain serine proteases, preparation and uses thereof” (TargetEx Kft., priority 2002, dated 2012).

In data set [1] the test system is C4. The experiment in a line: C4 cleavage by MASP fragments. Conditions: 37° C., pH 7.4; averages of 2 to 4 experiments, standard errors. In kind it is biochemical, human. How it is done:
(§1) C2, C3, C3(NH3), C4 cleavage—Serial dilutions of MASP-1 and MASP-2 fragments ranging between concentrations of 1 μM and 10 pM were incubated at 37° C. in 20 mM HEPES, 140 mM NaCl, pH 7.4 with C2, C3, C3(NH3) or C4 at typical concentrations of 0.5-1 μM. The cleavage was followed by SDS-PAGE under reducing conditions. Desirable concentrations of the MASP fragments for further detailed kinetic analysis were chosen to be where half of the protein substrates were hydrolyzed during the first 20 minutes of incubation. The protein substrates C2, C3, C3(NH3) or C4 were then incubated with the selected concentrations of the MASP fragments at 37° C. in 20 mM HEPES, 140 mM NaCl, pH 7.4. Typically 11-13 samples were taken at varying time periods but always within 50 minutes from the beginning of the reaction. Cleavages rates were quantified by measuring the diminution of the cleaved chain visualized by Coomassie stained SDS-PAGs using a GEL DOC 1000 instrument and Molecular Analyst Software for densitometric calculations (Bio-Rad, Hercules, Calif., USA). The reactions were assumed to be of the Michaelis-Menten type. In the case of C3 and C3(NH3) cleavage a further reasonable assumption of KM>>[substrate] was made. The constants KM, kcat and KM/kcat were estimated by unbiased non-linear regression methods regressing the data on the following equations: t=([S0]−[S]+KMln([S0]/[S]))/(kcat[E0]) or in the case of C3 and C3(NH3) cleavage on [S]=[S0]exp(−t[E0]kcat/KM).

Data set [2] concerns P1 Arg oligopeptide. The experiment in a line: Competing oligopeptide substrate library. The class given is biochemical. Conditions: same conditions. How it is done:
The specificities of the MASP-1 and MASP-2 CCP1-CCP2-SP fragments were tested on a competing oligopeptide library applying the method described before (Antal, 2001).
To further investigate the range of substrate specificity and relative specific activities of MASP-1 and MASP-2 we applied a competing oligopeptide substrate library. (Antal, 2001). This library contains a mixture of seven oligopeptides (each 13 amino acids in length) with different cleavage sites (P1) for both trypsin and chymotrypsin-like enzymes (His-Ala-Ala-Pro-Xxx-Ser-Ala-Asp-Ile-Gln-Ile-Asp-Ile, SEQ ID NO:18, where Xxx could be Lys, Arg, Tyr, Leu, Phe, Trp or Pro). The individual peptide substrates compete for the protease under investigation, in our cases for either the MASP-1 CCP1-CCP2-SP or the MASP-2 CCP1-CCP2-SP fragment. […] The MASP-1 catalytic fragment (CCP1-CCP2-SP) exerted a substantially larger activity on the Arg oligopeptide substrate than the MASP-2 fragment (FIG. 7). […] MASP-2 also preferred the Arg substrate to the Lys one, but the degree of preference was much less than that of MASP-1. A very similar specificity profile was obtained for trypsin in this oligopeptide library system.

Data set [3] addresses T1, live C3 (Homo sapiens, UniProt P01024).
T1 construct: was isolated from fresh human serum; from tissue; host or cells: fresh human serum
Briefly: Cleavage of live C3 by MASP fragments, SDS-PAGE densitometry. As to conditions: from kcat/KM values. The class given is biochemical. How it is done:
as §1, with “The constants KM, kcat and KM/kcat were estimated by unbiased non-linear regression methods regressing the data on the following equations: t=([S0]−[S]+KMln([S0]/[S]))/(kcat[E0]) or in the case of C3 and C3(NH3) cleavage on [S]=[S0]exp(−t[E0]kcat/KM).” left out

Data set [4] deals with T2, C1-inhibitor (Homo sapiens, UniProt P05155).
T2 construct: Purification of C1-inh and Alpha-2-Macroglobulin; from tissue
T2 sequence (P05155 23-500): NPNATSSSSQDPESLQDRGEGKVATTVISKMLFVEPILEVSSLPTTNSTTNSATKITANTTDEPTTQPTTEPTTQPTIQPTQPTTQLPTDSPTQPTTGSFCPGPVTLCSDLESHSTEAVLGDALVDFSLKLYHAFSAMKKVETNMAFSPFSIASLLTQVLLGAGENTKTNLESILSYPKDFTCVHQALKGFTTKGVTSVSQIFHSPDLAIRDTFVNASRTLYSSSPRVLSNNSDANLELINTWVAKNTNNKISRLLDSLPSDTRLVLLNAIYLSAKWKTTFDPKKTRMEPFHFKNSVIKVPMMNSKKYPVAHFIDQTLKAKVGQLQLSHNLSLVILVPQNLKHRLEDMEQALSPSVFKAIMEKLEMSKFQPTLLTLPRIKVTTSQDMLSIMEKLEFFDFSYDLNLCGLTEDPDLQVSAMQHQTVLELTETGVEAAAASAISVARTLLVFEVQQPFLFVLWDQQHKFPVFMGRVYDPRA
The experiment in a line: Rate of SDS stable complex formation of 125I-labelled MASP fragments with C1-inhibitor. The class given is biochemical. How it is done: To assess the rate of SDS stable complex formation between the MASP-1 and MASP-2 CCP1-CCP2-SP fragments and C1-inhibitor, the ^125I-labelled MASP fragments at concentrations ranging between 30-100 nM were incubated with 100-350 nM C1-inhibitor at 37° C. in 20 mM HEPES, 140 mM NaCl, pH 7.4 for 40 minutes. Typically 11-13 samples were taken at varying time periods. The reactions were stopped by reducing sample buffer containing 0.125 M Tris, 4.8% SDS, 8 M urea 20% glycerol, 720 mM mercaptoethanol, 0.02% bromophenol blue, pH6.8. The samples were further incubated at 37° C. for 30 minutes and run on reducing SDS-PAGE. Cleavages rates were visualized by means of autoradiography and the diminution of the reacted MASP chain was quantified using a GEL DOC 1000 instrument and Molecular Analyst Software for densitometric calculations (Bio-Rad, Hercules, Calif., USA). The kinetic constants were calculated assuming irreversible inhibition proceeded by reversible enzyme-inhibitor complex formation. Using steady-state approximation and neglecting the starting enzyme concentration compared to the starting inhibitor concentration ([I0]>>[E0]) the data was regressed on the following equation using non-linear regression methods: [E]=[E0]exp(−kobst); kobs=k2[I0]/(Ki+[I0]), where kobs is the observed pseudo-first order rate of reaction, k2 is the rate of irreversible enzyme-inhibitor complex formation and Ki is the inhibitory constant.

T1 sequence (P01024 672-1663 limits assumed): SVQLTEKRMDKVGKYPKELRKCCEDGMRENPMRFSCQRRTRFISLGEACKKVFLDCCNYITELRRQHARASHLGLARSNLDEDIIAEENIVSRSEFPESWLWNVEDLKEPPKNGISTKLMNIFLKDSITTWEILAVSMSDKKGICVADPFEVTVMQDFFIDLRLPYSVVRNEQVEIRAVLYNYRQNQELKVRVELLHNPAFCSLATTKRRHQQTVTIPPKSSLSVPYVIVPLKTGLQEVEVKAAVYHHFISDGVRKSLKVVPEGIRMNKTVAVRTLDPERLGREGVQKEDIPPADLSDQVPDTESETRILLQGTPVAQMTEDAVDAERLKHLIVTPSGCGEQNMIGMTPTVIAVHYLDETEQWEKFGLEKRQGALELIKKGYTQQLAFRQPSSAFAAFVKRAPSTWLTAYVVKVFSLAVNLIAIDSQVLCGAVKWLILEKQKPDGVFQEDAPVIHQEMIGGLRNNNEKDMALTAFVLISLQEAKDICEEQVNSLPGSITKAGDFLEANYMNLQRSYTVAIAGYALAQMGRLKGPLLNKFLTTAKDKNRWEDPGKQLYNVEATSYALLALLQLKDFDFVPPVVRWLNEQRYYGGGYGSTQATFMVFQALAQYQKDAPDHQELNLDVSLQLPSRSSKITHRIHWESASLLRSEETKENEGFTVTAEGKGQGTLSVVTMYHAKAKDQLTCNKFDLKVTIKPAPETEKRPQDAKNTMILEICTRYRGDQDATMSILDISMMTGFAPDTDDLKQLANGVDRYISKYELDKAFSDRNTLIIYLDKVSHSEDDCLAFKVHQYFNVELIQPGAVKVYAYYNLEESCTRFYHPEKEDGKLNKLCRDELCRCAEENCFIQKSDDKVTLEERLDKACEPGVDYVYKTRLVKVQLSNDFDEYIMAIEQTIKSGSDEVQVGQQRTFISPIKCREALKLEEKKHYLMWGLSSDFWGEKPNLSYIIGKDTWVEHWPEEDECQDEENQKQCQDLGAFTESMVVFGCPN
T1 sequence (P01024 23-667 partner limits assumed): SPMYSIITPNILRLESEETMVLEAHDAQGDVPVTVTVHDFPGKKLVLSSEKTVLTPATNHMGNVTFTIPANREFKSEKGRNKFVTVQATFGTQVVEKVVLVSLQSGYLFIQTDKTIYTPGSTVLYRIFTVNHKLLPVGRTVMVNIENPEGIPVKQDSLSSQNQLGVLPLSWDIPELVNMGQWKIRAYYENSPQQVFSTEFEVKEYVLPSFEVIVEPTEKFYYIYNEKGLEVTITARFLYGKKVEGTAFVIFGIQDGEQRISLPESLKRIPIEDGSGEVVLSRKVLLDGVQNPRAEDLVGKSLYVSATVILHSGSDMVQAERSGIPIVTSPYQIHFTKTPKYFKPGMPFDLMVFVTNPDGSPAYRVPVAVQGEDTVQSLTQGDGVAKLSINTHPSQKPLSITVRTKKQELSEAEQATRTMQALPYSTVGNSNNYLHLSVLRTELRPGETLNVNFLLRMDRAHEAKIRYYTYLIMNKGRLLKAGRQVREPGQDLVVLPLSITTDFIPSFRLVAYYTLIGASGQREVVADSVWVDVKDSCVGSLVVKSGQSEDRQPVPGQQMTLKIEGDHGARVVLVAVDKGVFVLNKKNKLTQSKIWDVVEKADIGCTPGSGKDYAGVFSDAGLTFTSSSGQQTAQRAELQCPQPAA

B1: MASP-1γB: E. coli-expressed, refolded human MASP-1 CCP1-CCP2-SP fragment, Gly298 to Asn699 with N-terminal Ala-Ser-Met-Thr tag (protein)
chain 1: ASMTGNECPELQPPVHGKIEPSQAKYFFKDQVLVSCDTGYKVLKDNVEMDTFQIECLKDGTWSNKIPTCKIVDCRAPGELEHGLITFSTRNNLTTYKSEIKYSCQEPYYKMLNNNTGIYTCSAQGVWMNKVLGRSLPTCLPVCGLPKFSRKLMAR
chain 2: IFNGRPAQKGTTPWIAMLSHLNGQPFCGGSLLGSSWIVTAAHCLHQSLDPEDPTLRDSDLLSPSDFKIILGKHWRLRSDENEQHLGVKHTTLHPQYDPNTFENDVALVELLESPVLNAFVMPICLPEGPQQEGAMVIVSGWGKQFLQRFPETLMEIEIPIVDHSTCQKAYAPLKKKVTRDMICAGEKEGGKDACAGDSGGPMVTLNRERGQWYLVGTVSWGDDCGKKDRYGVYSYIHHNKDWIQRVTGVRN
In data set [1], B1 came in with a C4 kcat of 0.002 ± 0.001 s⁻¹. Further, in data set [2], the “efficiency of digestion of the P1 Arg peptide relative to the corresponding fragment of MASP-2” value was 4-5 fold. Further, the “proteolytic action on 'live' C3 relative to 'dead' C3 (fold less)” value in data set [3] is recorded as “about 20 fold”. Moreover, the “kobs with C1-inhibitor, fold less than for the MASP-2 CCP1-CCP2-SP fragment” value in data set [4] was 5 fold. Besides, the “kobs, pseudo-first order rate of reaction with C1-inh” value in data set [4] ([C1-inh] = 350 nM, 37° C., pH 7.4) amounted to 0.0014 s⁻¹.
